Here are results for 167 variants from the RNAGym collection of RNA variant scans (doi:10.7554/elife.80360).

B1: Hammerhead Ribozyme (parent)
chain: ACCGGAUGUGCUUUCCGGUCUGAUGAGUCCGUGAGGACGAAACAG

Variants of B1 are the subject of the data set. The data set can be described thus: self-cleavage, relative activity (ratio to wild type); higher = more cleavage; co-transcriptional.
Turning to U21A C43U, the self-cleavage came to 0.398.

G5U C15G: the self-cleavage was 1.15.

On to G8C G18C, for which the self-cleavage stood at 0.564.

As to U9A C43A, the self-cleavage was determined as 0.333.

Consider G27C G33A, for which the self-cleavage was 0.864.

As for C3U C11A, the self-cleavage worked out at 1.16.

For the variant G10U C29A, the self-cleavage is 0.658.

As for G33C G39C, the self-cleavage is 0.375.

In the case of U21A A23G, the self-cleavage came to 0.419.

For A1U U28A, the self-cleavage amounted to 0.3.

On to A42C, for which the self-cleavage came to 0.373.

Turning to U9A A44C, the self-cleavage was 0.523.

Take U32C A44G: the self-cleavage was 1.32.

C2U G17U: the self-cleavage was 0.409.

For the variant C20A C38U, the self-cleavage stood at 0.385.

Take A23U A40U: the self-cleavage was 0.371.

As for A23C G39A, the self-cleavage is 0.298.

For the variant C43A A44C, the self-cleavage came out at 0.474.

For C2U A34U, the self-cleavage turned out to be 0.972.

Consider G5A A41G, for which the self-cleavage was found to be 0.327.

For the variant U14A A37G, the self-cleavage turned out to be 0.811.

As to G10A U28A, the self-cleavage was found to be 1.12.

Regarding C2G A34U, the self-cleavage is 0.347.

As to A1G C15U, the self-cleavage was determined as 1.68.

As to G5C A41G, the self-cleavage was determined as 0.27.

Turning to G5C A41U, the self-cleavage worked out at 0.326.

With A6U C11A, the self-cleavage is 0.831.

With A6U C11G, the self-cleavage was found to be 0.827.

In the case of A6G A23U, the self-cleavage worked out at 0.274.

For the variant U9G A26U, the self-cleavage came out at 0.344.

With G39C A44G, the self-cleavage was 0.638.

As for U12G U19G, the self-cleavage was found to be 0.509.

As to C3A A26U, the self-cleavage turned out to be 0.399.

A6C A44G: the self-cleavage came to 1.06.

As to G18A C29A, the self-cleavage is 0.44.

Take U28G G45C: the self-cleavage was 0.412.

With U12C G39U, the self-cleavage came out at 0.317.

With U12C G39C, the self-cleavage was found to be 0.327.

Regarding G5C A26G, the self-cleavage was found to be 0.267.

For the variant C29G A37G, the self-cleavage stood at 0.414.

Take U12A G18U: the self-cleavage was 0.888.

In the case of G10A C16A, the self-cleavage was 1.4.

With G8U C29G, the self-cleavage worked out at 0.847.

Consider G18C U28A, for which the self-cleavage was 0.415.

As to U24G G31C, the self-cleavage is 1.19.

For the variant G18C C43U, the self-cleavage was 0.292.

As for G22C A41C, the self-cleavage was determined as 0.321.

On to G22C A41U, for which the self-cleavage came out at 0.416.

U32C G36C: the self-cleavage is 0.553.

For G8C A37C, the self-cleavage was 1.05.

C2A G8U: the self-cleavage is 0.794.

As to A23C A41U, the self-cleavage is 0.361.

C16A U32A: the self-cleavage is 1.07.

Turning to C16A U32C, the self-cleavage stood at 1.09.

With G35C C43A, the self-cleavage was 0.352.

Take G8U C38A: the self-cleavage came out at 0.774.

As for U14A U32A, the self-cleavage was found to be 1.38.

As to U14A G36C, the self-cleavage was determined as 0.319.

G33A G45A: the self-cleavage was 0.794.

U12G U32A: the self-cleavage stood at 0.696.

In the case of G31C C38G, the self-cleavage was found to be 0.488.

Take G4A A41G: the self-cleavage came out at 0.287.

Take C15U A44G: the self-cleavage was 1.21.

Consider U9C U28A, for which the self-cleavage was found to be 0.717.

For the variant A1C U14G, the self-cleavage came out at 0.426.

As to G22U C43G, the self-cleavage turned out to be 0.348.

Take U13A C30U: the self-cleavage was found to be 1.46.

On to U32G A44C, for which the self-cleavage was found to be 0.424.

In the case of G36U A37G, the self-cleavage turned out to be 0.479.

Turning to G18U A37C, the self-cleavage was 0.567.

Consider A26C C43U, for which the self-cleavage stood at 0.343.

For A1C U28A, the self-cleavage turned out to be 0.389.

For C16G U21C, the self-cleavage was found to be 0.354.

A1U C11U: the self-cleavage was 0.423.

U13C C38G: the self-cleavage was found to be 0.458.

On to G8C C16U, for which the self-cleavage is 1.32.

Take G8A A34G: the self-cleavage was 1.06.

G33U G45A: the self-cleavage came out at 0.698.

As to C3G G10U, the self-cleavage came to 0.638.

For C16A G27C, the self-cleavage turned out to be 0.571.

Regarding C11U G31C, the self-cleavage amounted to 0.937.

As to U19G A40C, the self-cleavage was found to be 0.294.

With U12C G31U, the self-cleavage amounted to 1.

Turning to A6U U14A, the self-cleavage worked out at 1.06.

As to G4C A42C, the self-cleavage was 0.296.

For G27U U32C, the self-cleavage was determined as 0.495.

For the variant G25C G31U, the self-cleavage worked out at 0.358.

With A1G A34G, the self-cleavage was 1.5.

Take U13G C29A: the self-cleavage was 0.595.

In the case of G5A A23U, the self-cleavage is 0.304.

With G5A A23G, the self-cleavage amounted to 0.385.

In the case of A6G A34C, the self-cleavage was found to be 0.604.

Consider U14C C38G, for which the self-cleavage was 0.489.

As for U13C A42G, the self-cleavage was found to be 0.232.

Turning to C2G C11G, the self-cleavage came to 0.402.

C30A A44U: the self-cleavage was determined as 0.441.

U9A U24A: the self-cleavage turned out to be 1.2.

Turning to G8U C20A, the self-cleavage turned out to be 0.571.

Turning to C15G G17U, the self-cleavage was 0.321.

Regarding G5C U21G, the self-cleavage was found to be 0.367.

For the variant C30U C38G, the self-cleavage worked out at 0.598.

Regarding A23U G39A, the self-cleavage worked out at 0.331.

On to G8C A26C, for which the self-cleavage worked out at 0.434.

Take G25A A26G: the self-cleavage was determined as 0.306.

Turning to U14G U19C, the self-cleavage came to 0.715.

Regarding U21A A34U, the self-cleavage is 0.359.

For the variant A23G C30U, the self-cleavage came to 0.485.

On to U7A A34G, for which the self-cleavage was determined as 1.07.

On to C43G, for which the self-cleavage amounted to 0.406.

Take C2A G22U: the self-cleavage amounted to 0.34.

For the variant A34G G35C, the self-cleavage was determined as 0.771.

Regarding U14A G17C, the self-cleavage was found to be 0.375.

Take U12A A37U: the self-cleavage came to 0.827.

Regarding G39U A41U, the self-cleavage turned out to be 0.326.

For U19A C20U, the self-cleavage stood at 0.303.

For the variant G31U A37G, the self-cleavage is 0.899.

As for G8C A23U, the self-cleavage is 0.328.

For the variant A6U G35U, the self-cleavage was found to be 0.499.

As to U24C G39U, the self-cleavage was found to be 0.333.

Consider A6C A41U, for which the self-cleavage worked out at 0.383.

As for C2A G27U, the self-cleavage is 0.32.

On to G25C C43A, for which the self-cleavage worked out at 0.302.

With U14G G31C, the self-cleavage came to 0.967.

Turning to A23U C38U, the self-cleavage was 0.341.

Regarding A23C G33U, the self-cleavage was determined as 0.659.

For A26U G45U, the self-cleavage is 0.476.

Regarding U9A G36A, the self-cleavage was 0.621.

For the variant C20U G35C, the self-cleavage amounted to 0.407.

Turning to A23C G45U, the self-cleavage turned out to be 0.377.

In the case of G8U A44U, the self-cleavage is 0.688.

For G5C A23U, the self-cleavage stood at 0.221.

As for G5C A23C, the self-cleavage was found to be 0.326.

As to G10C A41U, the self-cleavage was 0.358.

Turning to C15U G17U, the self-cleavage was 0.476.

Regarding C15U G17A, the self-cleavage was 0.556.

Turning to C15U C29U, the self-cleavage amounted to 0.808.

U14G U21G: the self-cleavage worked out at 0.572.

For C3U A41C, the self-cleavage was 0.404.

Consider A34C A40C, for which the self-cleavage was found to be 0.316.

On to U21C, for which the self-cleavage stood at 0.877.

In the case of G22U A34G, the self-cleavage amounted to 0.308.

For the variant G25U G45C, the self-cleavage came out at 0.398.

On to U21G A23C, for which the self-cleavage worked out at 0.36.

Regarding C16U U28G, the self-cleavage worked out at 0.798.

Turning to C3U U13G, the self-cleavage is 0.866.

Regarding G17C G31U, the self-cleavage is 0.713.

Take G17C A26C: the self-cleavage was determined as 0.355.

As for G8U U24G, the self-cleavage stood at 1.11.

As to U12G C29U, the self-cleavage was 0.541.

With A23G U32A, the self-cleavage is 0.387.

Take G4A G33U: the self-cleavage stood at 0.597.

Turning to G5A G10U, the self-cleavage turned out to be 1.73.

Turning to G4C U13C, the self-cleavage came to 0.856.

As for U13A U32C, the self-cleavage was 1.24.

In the case of U32C G35U, the self-cleavage is 0.795.

For the variant C15G G35U, the self-cleavage was found to be 0.455.

Consider G25U A42C, for which the self-cleavage is 0.29.

For G27A C29U, the self-cleavage amounted to 0.598.

For the variant U9C U32G, the self-cleavage came to 0.9.

For the variant U13A G25C, the self-cleavage turned out to be 0.327.

For the variant A6U U32A, the self-cleavage is 0.605.

Regarding U19A G36U, the self-cleavage was found to be 0.302.

Turning to A23U A37G, the self-cleavage is 0.422.

For the variant G25U U28A, the self-cleavage worked out at 0.385.

For C16G A26C, the self-cleavage amounted to 0.305.

Take C2U A6U: the self-cleavage was 0.865.

With G5A U14C, the self-cleavage came out at 1.49.
